± gives the uncertainty stated by the source.

To fix the notation:
B1: Calcium-binding protein 2, residues 155 to 219; numbered along this chain, Q9NPB3 (parent)
chain: RELRDAFREFDTNGDGRISVGELRAALKALLGERLSQREVDEILQDVDLNGDGLVDFEEFVRMMS

Variants of B1 are the subject of this data set. The data set is described as follows: abundance fitness (aPCA) (normalised: wild type 0, dead -1); higher = more abundant; growth selection in yeast, the domain comes from the species named. The settings on record: Homo sapiens.
With RELRDAFREFDTNGDGRISVGELRAALKALLGERLSQREGDEILQDVDLNGDGLVDFEEFVRMMS [V40G], the abundance fitness was -0.055 ± 0.065.

As to RELRDAFREFDTNGDGRISVGELRAALKALLGERLSQREQDEILQDVDLNGDGLVDFEEFVRMMS [V40Q], the abundance fitness worked out at 0.063 ± 0.071.

For RELRDAFREFDTNGDGRISVGELRAALKALLGERLSQREVDEILQDVDLNGDGLVTFEEFVRMMS [D56T], the abundance fitness was 0.019 ± 0.069.

RELRDAFREFDTNGDGRISVGELRAALKALLGERLSQREVDEILQDVDLNGDGLVEFEEFVRMMS [D56E]: the abundance fitness stood at 0.12 ± 0.095.

Turning to RELRDAFREFDTNGDGRISVGELRAALKALLGERLSQREVDEILQDVDLNGDGLVDFEEFVLMMS [R62L], the abundance fitness is -0.21 ± 0.075.

RELRDAFREFDTNGDGRISVGELRAALKALLGERLSQREVDEILQDVDLNGDGLVDFEEFVRHMS [M63H]: the abundance fitness came out at 0.05 ± 0.18.

Consider RELRDAFREFDTNGDGRISVGELRAALKALLGERLSQREVDEILQDVDLAGDGLVDFEEFVRMMS [N50A], for which the abundance fitness was -0.056 ± 0.077.

For RELRDAFREFDKNGDGRISVGELRAALKALLGERLSQREVDEILQDVDLNGDGLVDFEEFVRMMS [T12K], the abundance fitness is -0.03 ± 0.15.

As to RELRDAFREFDTNGDGRISVGELRAHLKALLGERLSQREVDEILQDVDLNGDGLVDFEEFVRMMS [A26H], the abundance fitness is -0.228 ± 0.15.

Turning to RELRDAFREFDTNGDGRISVGELRADLKALLGERLSQREVDEILQDVDLNGDGLVDFEEFVRMMS [A26D], the abundance fitness was -0.379 ± 0.27.

With RELRDAFREFDTNGDGRISVGELRALLKALLGERLSQREVDEILQDVDLNGDGLVDFEEFVRMMS [A26L], the abundance fitness was 0.073 ± 0.058.

With RELRDAFREFMTNGDGRISVGELRAALKALLGERLSQREVDEILQDVDLNGDGLVDFEEFVRMMS [D11M], the abundance fitness is -1.17 ± 0.21.

With RELRDAFREFDTNGDGRISVGELRAALKALLGERLSQREVDEILQDVDLNGDGLVDFEEFVRMNS [M64N], the abundance fitness is 0.171 ± 0.22.

Consider RELRAAFREFDTNGDGRISVGELRAALKALLGERLSQREVDEILQDVDLNGDGLVDFEEFVRMMS [D5A], for which the abundance fitness was -0.226 ± 0.049.

Regarding RELRDAFREFDTNGDGRISVGELRAALKALLGERLSQREVDEILQDVDLNGDGLVDFDEFVRMMS [E58D], the abundance fitness was -0.061 ± 0.092.

In the case of RELRDAFREFDTNGDGRISVGELRAALKALLGERLSQREVDESLQDVDLNGDGLVDFEEFVRMMS [I43S], the abundance fitness is 0.08 ± 0.063.

Take RELRDAFREFDTNGDGRISVGEERAALKALLGERLSQREVDEILQDVDLNGDGLVDFEEFVRMMS [L23E]: the abundance fitness was -0.663 ± 0.14.

On to RELRDAFREFDTNGDGRISVGELRAALKAVLGERLSQREVDEILQDVDLNGDGLVDFEEFVRMMS [L30V], for which the abundance fitness was -0.053 ± 0.093.

For the variant RELRDAFREFDTNGDGKISVGELRAALKALLGERLSQREVDEILQDVDLNGDGLVDFEEFVRMMS [R17K], the abundance fitness was 0.017 ± 0.11.

Regarding RCLRDAFREFDTNGDGRISVGELRAALKALLGERLSQREVDEILQDVDLNGDGLVDFEEFVRMMS [E2C], the abundance fitness was -0.472 ± 0.19.

For the variant RELRDAFREFDTNGDGRISVGVLRAALKALLGERLSQREVDEILQDVDLNGDGLVDFEEFVRMMS [E22V], the abundance fitness is -0.489 ± 0.074.

With RELRDAFPEFDTNGDGRISVGELRAALKALLGERLSQREVDEILQDVDLNGDGLVDFEEFVRMMS [R8P], the abundance fitness was -0.573 ± 0.06.

On to RELRDAFREFDTNGDGRISVGELRAALKALLGERLSQPEVDEILQDVDLNGDGLVDFEEFVRMMS [R38P], for which the abundance fitness was -0.056 ± 0.058.

Turning to RELRDAFREFDTNGDGRISVGELRAALKALLGERLSQREVDEILQDVDLNGDMLVDFEEFVRMMS [G53M], the abundance fitness is -0.141 ± 0.09.

As for RELRDAFREFDTNGDGRISVGELRAALKALLGERLSQREVDEILQDVDLNGDSLVDFEEFVRMMS [G53S], the abundance fitness is -0.05 ± 0.068.

On to RELRDAFREFDTNGDGRISVGELRAALKALLGERLSQREVDEILQDVDLNGDPLVDFEEFVRMMS [G53P], for which the abundance fitness is -0.188 ± 0.085.

As for RELRDAFREFDTNGDGRGSVGELRAALKALLGERLSQREVDEILQDVDLNGDGLVDFEEFVRMMS [I18G], the abundance fitness was -0.97 ± 0.12.

Regarding RELRDAFREFDTNGDGRMSVGELRAALKALLGERLSQREVDEILQDVDLNGDGLVDFEEFVRMMS [I18M], the abundance fitness is 0.081 ± 0.065.

With RELRDAFREFDTNGDGRISVGELRAALKALLGERLSQREVDEILQDVDLNGDGIVDFEEFVRMMS [L54I], the abundance fitness is -0.223 ± 0.2.

Turning to RELRDAFREFDTNGDGRISVGELRAALKALLGERLSQREVDEILVDVDLNGDGLVDFEEFVRMMS [Q45V], the abundance fitness is -0.108 ± 0.068.

Consider RELRDAFREFDTNGDGRISVGELRAALKALLGERRSQREVDEILQDVDLNGDGLVDFEEFVRMMS [L35R], for which the abundance fitness turned out to be 0.096 ± 0.069.

For the variant RELRDAFREFDTNGDGRISVGELRAALKALLGERQSQREVDEILQDVDLNGDGLVDFEEFVRMMS [L35Q], the abundance fitness stood at 0.043 ± 0.12.

For REPRDAFREFDTNGDGRISVGELRAALKALLGERLSQREVDEILQDVDLNGDGLVDFEEFVRMMS [L3P], the abundance fitness was -0.441 ± 0.11.

As to RESRDAFREFDTNGDGRISVGELRAALKALLGERLSQREVDEILQDVDLNGDGLVDFEEFVRMMS [L3S], the abundance fitness was -0.473 ± 0.13.

Take RELRDAFREFDTNGDGRISVGELRAALKALLGERLSQREVQEILQDVDLNGDGLVDFEEFVRMMS [D41Q]: the abundance fitness is -0.365 ± 0.17.

With RELRDAFREFDTNGDGRISVGELRAALKALLGERLSQREVDEILQDVDLNYDGLVDFEEFVRMMS [G51Y], the abundance fitness is -0.107 ± 0.19.

Consider RELRDAFREFDTNGDGRISVGELRAALKALLGERLSQREVDEILQDVDLNGDGLMDFEEFVRMMS [V55M], for which the abundance fitness was -0.338 ± 0.057.

With RELRDACREFDTNGDGRISVGELRAALKALLGERLSQREVDEILQDVDLNGDGLVDFEEFVRMMS [F7C], the abundance fitness was -0.422 ± 0.1.

Take RELRDAFREFDTNGDGRISVGELRAALNALLGERLSQREVDEILQDVDLNGDGLVDFEEFVRMMS [K28N]: the abundance fitness was -0.133 ± 0.17.

Take RELRDAFREFDTNGDGRISVGELRAALMALLGERLSQREVDEILQDVDLNGDGLVDFEEFVRMMS [K28M]: the abundance fitness is -0.051 ± 0.17.

Regarding RELRDAFREFDTNGDGRISVGELRAALKALLGERLSQREVDEILQDVDLNGLGLVDFEEFVRMMS [D52L], the abundance fitness was -0.108 ± 0.062.

RELRDAFREFDTNGDGRISVGELRAALKALLGERLSQREVDEILQDVDLNGDGLVDFEGFVRMMS [E59G]: the abundance fitness was -0.171 ± 0.064.
